According to US20230242635A1 (published 2023):

Legend:
[1] = molecular target: canine FcRn complex (FcRn-α subunit and β-microglobulin), biotin labeled by BirA, captured on SA chip (Example 5) (canine); assay: SPR (Biacore), biotinylated FcRn captured on SA chip, IgG flowed, pH 7.4, 15 C
[2] = molecular target: canine FcRn complex (FcRn-α subunit and β-microglobulin), biotin labeled by BirA, captured on SA chip (Example 5) (canine); assay: SPR (Biacore), biotinylated FcRn captured on SA chip, IgG flowed, pH 6, 15 C
[3] = molecular target: canine FcRn complex (FcRn-α subunit and β-microglobulin) with c-terminal 6x His + BAP tag, amine-immobilized (Example 3) (canine); assay: SPR (Biacore), FcRn amine-coupled on CM5, IgG flowed, pH 6, 15 C
[4] = molecular target: IL-31 (target protein of mAb1, immobilized); assay: SPR (Biacore T200), target amine-coupled on CM5, antibody flowed, 15 C, 1:1 model
[5] = molecular target: IL-31 (target protein of mAb1, immobilized); assay: cell-based or functional assay
[6] = molecular target: canine FcRn complex (FcRn-α subunit and β-microglobulin) with c-terminal 6x His + BAP tag, amine-immobilized (Example 3) (canine); assay: SPR (Biacore), FcRn amine-coupled on CM5, IgG flowed, pH 7.2, 15 C

Binder | Kd [1] [nM] | Kd [2] [nM] | Kd [3] [nM] | Kd [4] [nM] | IC50 (cell based potency assay) [5] [nM] | Kd [6] [nM]
caninized anti-IL31 antibody 11E12 (mAb1 of Table 5), canine IgGB, N434H (antibody, part only; not given: light chain, part only) heavy: EVQLVQSGAEVKKPGASVKVSCKTSGYTFKYYDINWVRQAPGAGLDWMGWIFPGDGGTKYNETFKGRVTLTADTSTSTAYMELSSLRAGDIAVYYCARGGTSVIRDAMDYWGQGTLVTVSSASTTAPSVFPLAPSCGSTSGSTVALACLVSGYFPEPVTVSWNSGSLTSGVHTFPSVLQSSGLYSLSSMVTVPSSRWPSETFTCNVAHPASKTKVDKPVPKRENGRVPRPPDCPKCPAPEMLGGPSVFIFPPKPKDTLLIARTPEVTCVVVDLDPEDPEVQISWFVDGKQMQTAKTQPREEQFNGTYRVVSVLPIGHQDWLKGKQFTCKVNNKALPSPIERTISKARGQAHQPSVYVLPPSREELSKNTVSLTCLIKDFFPPDIDVEWQSNGQQEPESKYRTTPPQLDEDGSYFLYSKLSVDKSRWQRGDTFICAVMHEALHHHYTQESLSHSPGK | 83900 | 1 |  |  |  | 
caninized anti-IL31 antibody 34D03 (mAb1), canine IgGB (65), wild-type (antibody) heavy: EVQLVESGGDLVKPGGSLRLSCVASGFTFSNYGMSWVRQAPGKGLQWVATISYGGSYTYYPDNIKGRFTISRDNAKNTLYLQMNSLRAEDTAMYYCVRGYGYDTMDYWGQGTLVTVSSASTTAPSVFPLAPSCGSTSGSTVALACLVSGYFPEPVTVSWNSGSLTSGVHTFPSVLQSSGLYSLSSMVTVPSSRWPSETFTCNVAHPASKTKVDKPVPKRENGRVPRPPDCPKCPAPEMLGGPSVFIFPPKPKDTLLIARTPEVTCVVVDLDPEDPEVQISWFVDGKQMQTAKTQPREEQFNGTYRVVSVLPIGHQDWLKGKQFTCKVNNKALPSPIERTISKARGQAHQPSVYVLPPSREELSKNTVSLTCLIKDFFPPDIDVEWQSNGQQEPESKYRTTPPQLDEDGSYFLYSKLSVDKSRWQRGDTFICAVMHEALHNHYTQESLSHSPGK VL: EIVMTQSPASLSLSQEEKVTITCKASQSVSFAGTGLMHWYQQKPGQAPKLLIYRASNLEAGVPSRFSGSGSGTDFSFTISSLEPEDVAVYYCQQSREYPWTFGQGTKLEIK | 18700 | 19.9 | 15 to 24.4 | 0.483 | 1.1 | 
caninized anti-IL31 antibody 34D03 (mAb1), canine IgGB (65), N434H (antibody) heavy: EVQLVESGGDLVKPGGSLRLSCVASGFTFSNYGMSWVRQAPGKGLQWVATISYGGSYTYYPDNIKGRFTISRDNAKNTLYLQMNSLRAEDTAMYYCVRGYGYDTMDYWGQGTLVTVSSASTTAPSVFPLAPSCGSTSGSTVALACLVSGYFPEPVTVSWNSGSLTSGVHTFPSVLQSSGLYSLSSMVTVPSSRWPSETFTCNVAHPASKTKVDKPVPKRENGRVPRPPDCPKCPAPEMLGGPSVFIFPPKPKDTLLIARTPEVTCVVVDLDPEDPEVQISWFVDGKQMQTAKTQPREEQFNGTYRVVSVLPIGHQDWLKGKQFTCKVNNKALPSPIERTISKARGQAHQPSVYVLPPSREELSKNTVSLTCLIKDFFPPDIDVEWQSNGQQEPESKYRTTPPQLDEDGSYFLYSKLSVDKSRWQRGDTFICAVMHEALHHHYTQESLSHSPGK VL: EIVMTQSPASLSLSQEEKVTITCKASQSVSFAGTGLMHWYQQKPGQAPKLLIYRASNLEAGVPSRFSGSGSGTDFSFTISSLEPEDVAVYYCQQSREYPWTFGQGTKLEIK |  | 6.45 | 0.7 to 1.3 | 0.373 | 0.99 | 5000
